Source: patent publication US9975943B2, “Polypeptides” (AFFIBODY AB, priority 2013, dated 2018)

How the values were obtained:
[1] = Pharmacokinetic study in mice; assay type: in vivo, mouse; conditions: male NMRI mice; i.v. 92 nmol/kg; serum; Z variants as fusions to PP013-Z03638
Description: Z11947, Z11946 and Z11948 fused to PP013-Z03638 were administered intravenously (i.v.) to male NMRI mice (Charles River, Germany) at a dose of 92 nmol/kg body weight. Sera from groups of three mice were obtained at 0.08, 6, 18, 78, 120, 168 and 240 hours. The concentration of respective Z variant was determined by ELISA.
Half-area 96-well ELISA plates were coated at 4° C. overnight with 50 μl/well of an Z specific goat antibody (produced in-house) diluted to 4 μg/ml in coating buffer (50 mM sodium carbonate, pH 9.6). The antibody solution was poured off and the wells were blocked with 100 μl of PBSC for 1.5 h at RT. The sera were diluted in PBSC plus 1% mouse serum (matrix) from 1:100 to 1:51,200 in a two-fold dilution series in a dilutions plate. […] Bound Z variants were detected with 50 μl/well of rabbit anti-PP013 Ig (produced in-house) diluted to 4 μg/ml in PBSC. […] After 15 minutes of development, the absorbance was measured at 450 nm using a multi-well plate reader (Victor^3). The absorbance values were analyzed using GraphPad Prism 5 to determine the concentrations (cubic-spline curve fit) and area under curve (AUC). […] The resulting curves followed a two compartment model and the terminal half-life was calculated as In2 divided by the slope based on the last three time points.

[2] = molecular target: human FcRn (Homo sapiens, UniProt P55899); experiment: Biacore analysis of Z variants fused to PP013-Z03638; assay type: binding; set-up: made in house; host or cells: human SKOV-3 cells, lentivirally transduced, secreted; purified on immobilized human IgG; conditions: pH 6.0; 40, 160 and 640 nM
Description: Expressed and purified Z variants fused to PP013-Z03638 were assayed against human FcRn at pH 6.0 essentially as described for the kinetic analysis in Example 3. The Z variants and the negative control Z03638-PP013 were injected at 40 nM, 160 nM and 640 nM during 1 minute followed by dissociation for 2.5 minutes and equilibration for 1 minute. Kinetic constants and affinities were determined for the Z variants using the BiaEvaluation software.

binding to FcRn [2]: negative against FcRn
Substance: Z03638-PP013: negative control molecule [Z03638]-GAP(G4S)4TS-[PP013]; Taq polymerase binding Z variant fused to albumin binding polypeptide
terminal half-life [1]: approximately 43 hours
